# Experimental data taken from patent publication US20190085029.
# Tested on: T1, CDK5 inhibitory (CDK5i) peptide
# T1 sequence: ARAFGIPVRCYS
substance,measurement,value
Purified recombinant p25/CDK5 complex,"CDK5 kinase activity (radiolabeled ATP and its substrate, H1)",the CDK5i peptide significantly reduced CDK5 kinase activity compared to that from a scrambled peptide-treated group
